This series concerns the target T1, ZmMYB84 (MBP fusion) (Zea mays, UniProt B4FQD3 1-356).
T1 sequence: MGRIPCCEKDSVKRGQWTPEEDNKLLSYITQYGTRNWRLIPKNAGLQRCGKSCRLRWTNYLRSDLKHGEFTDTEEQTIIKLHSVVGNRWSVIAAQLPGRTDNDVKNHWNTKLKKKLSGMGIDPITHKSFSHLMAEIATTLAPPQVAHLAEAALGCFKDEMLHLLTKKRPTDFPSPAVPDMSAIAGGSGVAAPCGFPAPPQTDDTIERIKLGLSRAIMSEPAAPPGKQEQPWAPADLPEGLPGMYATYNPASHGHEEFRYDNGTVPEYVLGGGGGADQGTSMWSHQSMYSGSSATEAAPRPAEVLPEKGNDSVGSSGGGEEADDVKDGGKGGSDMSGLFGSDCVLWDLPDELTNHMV
Briefly: EMSA; EMSA conditions not stated (as in Hou et al., 2023). The note with it: protein: recombinant; tags: MBP (ZmMYB84 fused to the C-terminus of MBP; vector pMCSG7); label: biotin; 5' overhang 1 nt on each strand (so in the source).

B1: ZmTKPR1-1bio promoter probe (dsDNA)
DNA 1: TAGGAAGGAAGAAGGTTCCTGCAATGCATGTAAGGTTGGTAATTCATGCCTT
DNA 2: AAAGGCATGAATTACCAACCTTACATGCATTGCAGGAACCTTCTTCCTTCCT
Consider B1, for which the binding result is “binds”.

B2: ZmTKPR1-2bio promoter probe (dsDNA)
DNA 1: ATTGCAAATCTACCCCCAACCAACCCAGCTTTGTATCTG
DNA 2: GCAGATACAAAGCTGGGTTGGTTGGGGGTAGATTTGCAA
For the molecule B2, the binding result was “binds”.

The record behind these values is publication PMC10754010, “CRISPR/Cas9‐based genome editing of 14 lipid metabolic genes reveals a sporopollenin metabolon ZmPKSB‐ZmTKPR1‐1/‐2 required for pollen exine formation in maize”.
